Measurements published in publication PMC9482650, “Quantitative fragmentomics allow affinity mapping of interactomes” (Nature Communications, 2022).

Legend:
Assay in all cases: holdup assay
Parameters in all cases: key: below the threshold = too weak to quantify, mostly under pKd 3.1 to 4
Details in all cases: plain residues with an end cap or a label only (N-terminal biotin on a linker: ado-ado)
[1] = target: Inadl_8, Q8NI35
[2] = target: Inadl_2, Q8NI35
[3] = target: MAGI3_2, Q5TCQ9
[4] = target: T1, RAPGEF6, Q8TEU7
T1 sequence (Q8TEU7 525-625, limits assumed, looked up): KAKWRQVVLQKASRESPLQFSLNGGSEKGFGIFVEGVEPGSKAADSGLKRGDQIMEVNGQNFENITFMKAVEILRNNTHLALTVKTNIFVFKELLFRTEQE

[5] = target: MAGI2_3, Q86UL8
Chain of MAGI2_3, Q86UL8 (Q86UL8 600-682): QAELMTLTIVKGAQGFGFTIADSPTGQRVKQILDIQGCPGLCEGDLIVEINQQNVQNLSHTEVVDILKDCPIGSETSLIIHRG

[6] = target: T2, APBA1_1, Q02410
T2 sequence (Q02410 651-752, limits assumed, looked up): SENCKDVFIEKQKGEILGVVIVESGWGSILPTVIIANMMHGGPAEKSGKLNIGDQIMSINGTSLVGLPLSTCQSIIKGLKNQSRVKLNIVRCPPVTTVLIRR

[7] = target: PDLIM1, O00151
Chain of PDLIM1, O00151 (O00151 1-87): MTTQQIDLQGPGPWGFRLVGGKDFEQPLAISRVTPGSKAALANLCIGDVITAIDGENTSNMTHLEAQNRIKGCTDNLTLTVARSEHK

[8] = target: PARD3_3, Q8TEW0
Chain of PARD3_3, Q8TEW0 (Q8TEW0 582-685): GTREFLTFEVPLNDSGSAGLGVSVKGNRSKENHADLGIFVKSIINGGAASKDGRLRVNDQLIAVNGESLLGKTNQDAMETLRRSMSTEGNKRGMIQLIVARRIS

[9] = target: Inadl_4, Q8NI35
Chain of Inadl_4, Q8NI35 (Q8NI35 547-651): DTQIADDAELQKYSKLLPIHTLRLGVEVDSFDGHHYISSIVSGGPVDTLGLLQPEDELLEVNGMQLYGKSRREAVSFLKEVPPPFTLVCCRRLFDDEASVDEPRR

[10] = target: MAGI2_4, Q86UL8
Chain of MAGI2_4, Q86UL8 (Q86UL8 772-865): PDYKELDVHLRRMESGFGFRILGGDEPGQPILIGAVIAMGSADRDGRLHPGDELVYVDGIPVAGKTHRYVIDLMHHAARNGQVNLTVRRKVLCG

[11] = target: FRMPD2_1, Q68DX3
Chain of FRMPD2_1, Q68DX3 (Q68DX3 770-861): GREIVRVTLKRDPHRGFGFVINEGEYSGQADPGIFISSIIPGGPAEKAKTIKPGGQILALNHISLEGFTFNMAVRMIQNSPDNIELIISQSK

[12] = target: NHERF4_2, Q86UT5
Chain of NHERF4_2, Q86UT5 (Q86UT5 220-308): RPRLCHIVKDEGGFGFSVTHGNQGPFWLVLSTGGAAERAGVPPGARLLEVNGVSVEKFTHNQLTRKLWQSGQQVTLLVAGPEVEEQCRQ

[13] = target: T3, DLG3_3, Q92796
T3 sequence (Q92796 374-475, limits assumed, looked up): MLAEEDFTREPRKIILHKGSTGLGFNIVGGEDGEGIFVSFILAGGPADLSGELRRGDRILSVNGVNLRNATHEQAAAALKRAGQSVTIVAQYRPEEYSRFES

[14] = target: T4, TJP3_3, O95049
T4 sequence (O95049 375-456, limits assumed, looked up): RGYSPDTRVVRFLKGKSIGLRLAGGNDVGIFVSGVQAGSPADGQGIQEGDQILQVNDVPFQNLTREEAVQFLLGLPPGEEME

[15] = target: LDB3, O75112
Chain of LDB3, O75112 (O75112 1-94): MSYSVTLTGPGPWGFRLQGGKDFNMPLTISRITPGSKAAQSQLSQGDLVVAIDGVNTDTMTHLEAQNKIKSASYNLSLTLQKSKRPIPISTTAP

[16] = target: T5, ARHGAP21, Q5T5U3
T5 sequence (Q5T5U3 45-169, limits assumed, looked up): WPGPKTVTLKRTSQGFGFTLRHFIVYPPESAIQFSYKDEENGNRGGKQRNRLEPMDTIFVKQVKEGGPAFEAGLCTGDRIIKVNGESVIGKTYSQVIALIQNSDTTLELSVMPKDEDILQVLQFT

[17] = target: AHNAK1, Q09666
Chain of AHNAK1, Q09666 (Q09666 4-100): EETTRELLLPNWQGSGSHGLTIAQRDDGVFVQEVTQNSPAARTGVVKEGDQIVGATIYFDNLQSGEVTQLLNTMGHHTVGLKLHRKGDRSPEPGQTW

[18] = target: T6, APBA3_1, O96018
T6 sequence (O96018 389-490, limits assumed, looked up): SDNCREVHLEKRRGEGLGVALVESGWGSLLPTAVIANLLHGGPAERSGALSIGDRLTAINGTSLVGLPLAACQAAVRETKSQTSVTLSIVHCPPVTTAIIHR

[19] = target: NHERF4_1, Q86UT5-2
Chain of NHERF4_1, Q86UT5-2 (Q86UT5 other isoform, or with tags, fused parts or gaps): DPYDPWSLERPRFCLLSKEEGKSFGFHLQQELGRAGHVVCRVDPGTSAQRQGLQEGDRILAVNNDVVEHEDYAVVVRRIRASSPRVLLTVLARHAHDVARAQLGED

[20] = target: T7, SHANK1, Q9Y566
T7 sequence (Q9Y566 658-767, limits assumed, looked up): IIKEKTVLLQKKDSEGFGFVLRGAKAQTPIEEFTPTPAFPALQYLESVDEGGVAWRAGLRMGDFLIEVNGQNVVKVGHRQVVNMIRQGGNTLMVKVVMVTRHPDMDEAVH

[21] = target: T8, LRRC7, Q96NW7
T8 sequence (Q96NW7 1440-1537, limits assumed, looked up): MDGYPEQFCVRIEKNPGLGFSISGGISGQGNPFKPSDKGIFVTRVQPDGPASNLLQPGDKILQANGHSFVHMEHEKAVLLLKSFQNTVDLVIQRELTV

[22] = target: GRID2IP_1, A4D2P6
Chain of GRID2IP_1, A4D2P6 (A4D2P6 1-87): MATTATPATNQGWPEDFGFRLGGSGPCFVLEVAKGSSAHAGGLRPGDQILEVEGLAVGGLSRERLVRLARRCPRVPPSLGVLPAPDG

[23] = target: T9, FRMPD1, Q5SYB0
T9 sequence (Q5SYB0 52-145, limits assumed, looked up): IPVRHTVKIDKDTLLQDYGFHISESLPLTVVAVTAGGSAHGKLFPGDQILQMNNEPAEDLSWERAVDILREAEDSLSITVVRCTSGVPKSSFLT

[24] = target: T10, LIN7C, Q9NUP9
T10 sequence (Q9NUP9 88-185, limits assumed, looked up): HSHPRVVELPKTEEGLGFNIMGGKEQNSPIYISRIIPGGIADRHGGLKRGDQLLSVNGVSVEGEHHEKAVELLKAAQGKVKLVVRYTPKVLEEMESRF

[25] = target: PTPN3, P26045
Chain of PTPN3, P26045 (P26045 505-587): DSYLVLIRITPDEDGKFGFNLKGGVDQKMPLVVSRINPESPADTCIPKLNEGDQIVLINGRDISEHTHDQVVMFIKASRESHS

[26] = target: DLG2_2, Q15700
Chain of DLG2_2, Q15700 (Q15700 189-283): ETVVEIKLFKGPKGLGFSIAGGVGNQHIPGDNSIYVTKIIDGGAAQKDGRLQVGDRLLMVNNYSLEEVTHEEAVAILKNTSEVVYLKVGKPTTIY

[27] = target: T11, LNX2_3, Q8N448
T11 sequence (Q8N448 463-564, limits assumed, looked up): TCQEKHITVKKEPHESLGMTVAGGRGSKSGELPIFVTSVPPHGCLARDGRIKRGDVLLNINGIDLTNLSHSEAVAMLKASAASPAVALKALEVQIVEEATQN

Chain of Inadl_8, Q8NI35 (Q8NI35 1425-1530): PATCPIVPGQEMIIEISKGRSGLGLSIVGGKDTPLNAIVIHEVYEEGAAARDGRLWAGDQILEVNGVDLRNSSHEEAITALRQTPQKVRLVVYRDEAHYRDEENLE
Chain of Inadl_2, Q8NI35 (Q8NI35 238-335): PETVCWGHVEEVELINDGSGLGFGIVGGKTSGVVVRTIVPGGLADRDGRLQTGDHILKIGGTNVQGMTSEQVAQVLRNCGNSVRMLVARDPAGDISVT
Chain of MAGI3_2, Q5TCQ9 (Q5TCQ9 398-503): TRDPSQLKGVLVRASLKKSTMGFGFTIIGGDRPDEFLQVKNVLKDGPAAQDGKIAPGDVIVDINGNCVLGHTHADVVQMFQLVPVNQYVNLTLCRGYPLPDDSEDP

**Q.** What does the source list for QPCFNKLFPL [LPXN, O60711]?
**A.** pKd [1]: below the threshold; pKd [2]: below the threshold; pKd [3]: below the threshold; pKd [4]: below the threshold; pKd [5]: below the threshold; pKd [6]: below the threshold; pKd [7]: below the threshold; pKd [8]: below the threshold; pKd [9]: below the threshold; pKd [10]: below the threshold; pKd [11]: below the threshold; pKd [12]: below the threshold; pKd [13]: below the threshold; pKd [14]: below the threshold; pKd [15]: below the threshold; pKd [16]: 3.91; pKd [17]: below the threshold; pKd [18]: below the threshold; pKd [19]: below the threshold; pKd [20]: below the threshold; pKd [21]: below the threshold; pKd [22]: below the threshold; pKd [23]: below the threshold; pKd [24]: below the threshold; pKd [25]: below the threshold; pKd [26]: below the threshold; pKd [27]: below the threshold

**Q.** LPHPHSTTRV [NLGN2, Q8NFZ4] was tested. Which pKd [1] did it give?
**A.** 4.39

**Q.** What about the pKd [2] of the same binder?
**A.** below the threshold

**Q.** And the pKd [3]?
**A.** 5.12

**Q.** And the pKd [4]?
**A.** below the threshold

**Q.** What about the pKd [5] of the same binder?
**A.** 4.24

**Q.** What about the pKd [6] of the same binder?
**A.** below the threshold

**Q.** And the pKd [7]?
**A.** below the threshold

**Q.** What about the pKd [8] of the same binder?
**A.** below the threshold

**Q.** And the pKd [9]?
**A.** below the threshold

**Q.** What about the pKd [10] of the same binder?
**A.** 3.72

**Q.** And the pKd [11]?
**A.** below the threshold

**Q.** And the pKd [12]?
**A.** below the threshold

**Q.** And the pKd [13]?
**A.** 3.86

**Q.** And the pKd [14]?
**A.** below the threshold

**Q.** What about the pKd [15] of the same binder?
**A.** below the threshold

**Q.** What about the pKd [16] of the same binder?
**A.** 3.71

**Q.** And the pKd [17]?
**A.** below the threshold

**Q.** What about the pKd [18] of the same binder?
**A.** below the threshold

**Q.** What about the pKd [19] of the same binder?
**A.** below the threshold

**Q.** And the pKd [20]?
**A.** 4.81

**Q.** What about the pKd [21] of the same binder?
**A.** below the threshold

**Q.** And the pKd [22]?
**A.** below the threshold

**Q.** And the pKd [23]?
**A.** below the threshold

**Q.** What about the pKd [24] of the same binder?
**A.** below the threshold

**Q.** And the pKd [25]?
**A.** below the threshold

**Q.** What about the pKd [26] of the same binder?
**A.** 3.59

**Q.** And the pKd [27]?
**A.** below the threshold
